How the values were obtained:
mesothelin (MSLN) = mesothelin (MSLN) (UniProt Q13421); assay: 4 C cell binding assay on Panc-1 (MSLN strongly-positive) cells, E4 qPCR
[1] = biological target: T1, AdML-5WT, control adenovirus with the native (wild type) Ad5 fiber (adenovirus type 5, UniProt P11818 1-581); assay: cell binding assay, 10 vp/cell, 2 h, 4 C, E4 qPCR (FIG. 26)
T1 construct: The whole virion stood in the assays; also called AdML-WT; wild type fiber virus
T1 sequence: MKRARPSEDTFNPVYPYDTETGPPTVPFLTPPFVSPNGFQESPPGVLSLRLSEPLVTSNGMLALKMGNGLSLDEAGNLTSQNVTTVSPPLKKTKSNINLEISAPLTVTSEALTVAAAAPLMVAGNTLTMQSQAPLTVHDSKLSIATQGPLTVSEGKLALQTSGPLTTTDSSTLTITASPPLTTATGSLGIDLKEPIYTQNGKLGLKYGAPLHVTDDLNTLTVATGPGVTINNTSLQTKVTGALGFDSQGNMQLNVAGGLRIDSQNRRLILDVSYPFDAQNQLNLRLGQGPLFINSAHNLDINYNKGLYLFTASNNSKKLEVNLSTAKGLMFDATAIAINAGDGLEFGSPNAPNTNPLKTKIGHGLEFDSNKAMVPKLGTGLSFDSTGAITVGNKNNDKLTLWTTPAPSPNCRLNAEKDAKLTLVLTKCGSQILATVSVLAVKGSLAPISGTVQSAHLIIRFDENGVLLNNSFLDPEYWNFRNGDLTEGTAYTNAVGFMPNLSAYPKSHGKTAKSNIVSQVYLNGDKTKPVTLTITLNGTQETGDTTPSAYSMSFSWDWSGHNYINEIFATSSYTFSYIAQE

CD133 (Prominin-1) [2] = biological target: T2, CD133 (Prominin-1) (UniProt O43490 20-865); assay: cell-based or functional assay
T2 sequence: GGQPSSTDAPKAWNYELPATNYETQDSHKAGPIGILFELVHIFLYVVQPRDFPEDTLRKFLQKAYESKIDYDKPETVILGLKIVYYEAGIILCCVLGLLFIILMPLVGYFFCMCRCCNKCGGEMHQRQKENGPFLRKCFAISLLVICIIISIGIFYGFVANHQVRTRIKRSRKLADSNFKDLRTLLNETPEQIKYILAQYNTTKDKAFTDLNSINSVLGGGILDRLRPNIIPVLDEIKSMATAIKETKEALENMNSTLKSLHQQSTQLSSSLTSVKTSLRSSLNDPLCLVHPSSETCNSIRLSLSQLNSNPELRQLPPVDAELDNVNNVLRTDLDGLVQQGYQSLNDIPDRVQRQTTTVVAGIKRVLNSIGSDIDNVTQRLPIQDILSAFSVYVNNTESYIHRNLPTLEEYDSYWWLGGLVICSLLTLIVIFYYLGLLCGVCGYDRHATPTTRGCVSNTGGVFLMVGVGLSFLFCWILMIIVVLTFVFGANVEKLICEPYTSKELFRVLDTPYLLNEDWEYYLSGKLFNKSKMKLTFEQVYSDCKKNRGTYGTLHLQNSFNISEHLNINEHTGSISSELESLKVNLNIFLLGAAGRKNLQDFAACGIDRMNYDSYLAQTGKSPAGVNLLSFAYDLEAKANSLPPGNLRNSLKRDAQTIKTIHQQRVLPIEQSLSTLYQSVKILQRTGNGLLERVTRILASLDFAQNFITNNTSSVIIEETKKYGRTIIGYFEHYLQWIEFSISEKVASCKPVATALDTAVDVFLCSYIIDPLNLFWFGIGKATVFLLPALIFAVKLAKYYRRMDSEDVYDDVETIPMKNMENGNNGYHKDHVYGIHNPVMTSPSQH

CD133 (Prominin-1) [3] = biological target: T2, CD133 (Prominin-1); assay: cell binding assay with and without anti-CD133 antibody (FIG. 17)

Work on “AdML-VTIN, adenovirus with the VTINRSA (SEQ ID NO:12) targeting motif in the AB-loop of the fiber knob (from UniProt P11818 1-410; P11818 418-581)” yielded a fold binding against AdMG553 (mesothelin (MSLN)) of 2 fold and a fold binding against AdML-5WT (mesothelin (MSLN)) of 5 fold.

B1: Coxsackie adenovirus receptor (CAR) (receptor)
chain: LSITTPEEMIEKAKGETAYLPCKFTLSPEDQGPLDIEWLISPADNQKVDQVIILYSGDKIYDDYYPDLKGRVHFTSNDLKSGDASINVTNLQLSDIGTYQCKVKKAPGVANKKIHLVVLVKPSGARCYVDGSEEIGSDFKIKCEPKEGSLPLQYEWQKLSDSQKMPTSWLAEMTSSVISVKNASSEYSGTYSCTVRNRVGSDQCLLRLNVVPPSNKAGLIAGAIIGTLLALALIGLIIFCCRKKRREEKYEKEVHHDIREDVPPPKSRTSTARSYIGSNHSSLGSMSPSNMEGYSKTQYNQVPSEDFERTPQSPTLPPAKVAAPNLSRMGAIPVMIPAQSKDGSIV
notes: whole, on cells; the cell lines are human; also called Ad5 receptor; natural Ad receptor
B1: binds [1].

B2: AdML-TYML, adenovirus with the TYMLSRN (SEQ ID NO:106) targeting motif in the AB-loop of the fiber knob (other)
chain: MKRARPSEDTFNPVYPYDTETGPPTVPFLTPPFVSPNGFQESPPGVLSLRLSEPLVTSNGMLALKMGNGLSLDEAGNLTSQNVTTVSPPLKKTKSNINLEISAPLTVTSEALTVAAAAPLMVAGNTLTMQSQAPLTVHDSKLSIATQGPLTVSEGKLALQTSGPLTTTDSSTLTITASPPLTTATGSLGIDLKEPIYTQNGKLGLKYGAPLHVTDDLNTLTVATGPGVTINNTSLQTKVTGALGFDSQGNMQLNVAGGLRIDSQNRRLILDVSYPFDAQNQLNLRLGQGPLFINSAHNLDINYNKGLYLFTASNNSKKLEVNLSTAKGLMFDATAIAINAGDGLEFGSPNAPNTNPLKTKIGHGLEFDSNKAMVPKLGTGLSFDSTGAITVGNKNNDKLTLWTTPAPSPNTYMLSRNDAKLTLVLTKCGSQILATVSVLAVKGSLAPISGTVQSAHLIIRFDENGVLLNNSFLDPEYWNFRNGDLTEGTAYTNAVGFMPNLSAYPKSHGKTAKSNIVSQVYLNGDKTKPVTLTITLNGTQETGDTTPSAYSMSFSWDWSGHNYINEIFATSSYTFSYIAQE
notes: also called TYML virus; Ad-TYML
With B2 the “viral copy number after infection (E4 qPCR)” value (CD133 (Prominin-1) [2]) was greater than 5 fold and the “fold binding, CD133(+) against CD133(-) 293 cells” value (CD133 (Prominin-1) [3]) was 4 fold.

From US20170119830A1 (REGENTS OF THE UNIVERSITY OF MINNESOTA, published 2017)
